In this assay the target is T1, GH receptor-producing cells (Homo sapiens, UniProt P10912).
T1 sequence (P10912 19-638): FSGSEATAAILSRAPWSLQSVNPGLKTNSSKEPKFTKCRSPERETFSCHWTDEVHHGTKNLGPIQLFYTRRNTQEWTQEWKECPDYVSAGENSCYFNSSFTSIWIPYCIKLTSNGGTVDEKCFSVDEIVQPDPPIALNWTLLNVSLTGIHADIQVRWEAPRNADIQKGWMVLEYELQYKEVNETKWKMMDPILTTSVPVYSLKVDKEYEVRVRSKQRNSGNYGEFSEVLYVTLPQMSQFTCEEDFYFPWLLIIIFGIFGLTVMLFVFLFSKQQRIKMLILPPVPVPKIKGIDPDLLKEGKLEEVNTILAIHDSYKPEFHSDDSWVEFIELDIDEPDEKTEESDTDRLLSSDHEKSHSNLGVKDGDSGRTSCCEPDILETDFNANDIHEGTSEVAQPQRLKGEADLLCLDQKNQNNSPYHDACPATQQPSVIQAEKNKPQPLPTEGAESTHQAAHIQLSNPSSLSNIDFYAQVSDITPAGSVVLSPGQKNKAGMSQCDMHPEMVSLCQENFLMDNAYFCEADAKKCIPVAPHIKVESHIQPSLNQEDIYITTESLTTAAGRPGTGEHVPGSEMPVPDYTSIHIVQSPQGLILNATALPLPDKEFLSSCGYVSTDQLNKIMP
As to the kind of experiment: Cell binding assays (competition with 125I-GH). To be noted: unlabeled competitor, 0° C., 90 minutes. The procedure:
Cells are then resuspended and layered over 200 μl ice cold FCS in a 350 μl plastic centrifuge tube and centrifuged (1000 g; […]). The pellet is collected by cutting off the end of the tube and pellet and supernatant counted separately in a gamma counter (Packard).
Specific binding (cpm) is determined as total binding in the absence of a competitor (mean of duplicates) minus binding (cpm) in the presence of 100-fold excess of unlabeled GH (non-specific binding). The non-specific binding is measured for each of the cell types used.

Turning to “GM-CSF: granulocyte-macrophage colony stimulating factor, negative control”, the “inhibition of 125I-GH binding” value is given as “not”.

The values above are taken from US20100098630A1, “Phenazine and Quinoxaline Substituted Amino Acids and Polypeptides” (AMBRX, INC., priority 2006, published 2010).
